{"source": "patent US20240352155A1", "about": "(CHIMAGEN BIOSCIENCES, published 2024)", "binders": {"B1": {"name": "CD3XCD19 bispecific antibody (antibody A) (bispecific antibody)", "chain 1": "EIVLTQSPATLSVTPGERATLSCSASSSVSYMHWYQKKPGQAPRLLIYDTSKLASGIPARFSGSGSGTDFTLTISSLEPEDFAVYYCFQGSVYPFTFGCGTKLEIKRTVAAEVQLVESGGGLVQPGGSLRLSCAASGFTFNTYAMNWVRKAPGKGLEWVGRIRSKYNNYATYYADSVDKGRFTISRDDSKNSLYLQMNSLKTEDTAVYYCVRHGNFGNSYVSWFAYWGQGTLVTVSS", "chain 2": "EAVVTQEPSLTVSPGGTVTLTCRSSTGAVTTSNYANWVQDKPGQAPRGLIGGTNKRAPWTPARFSGSLLGGKAALTITGAQPEDEAEYYCALWYSNLWVFGGGTKLTVLRTVAAQVQLQESGPGLVKPSQTLSLTCTVSGGSISTSGMGVGWIRDHPGKCLEWIGHIWWDDDKRYNPALKSRVTISVDTSKNQFSLKLSSVTAADTAVYYCARMELWSYYFDYWGQGTTLTVSSASEPKSDKTHTCPPCPAPPVAGGPSVFLFPPKPKDTLMISRTPEVTCVVVDVSQEDPEVKFNWYVDGVEVHNAKTKPREEQFNSTYRVVSVLTVLHQDWLNGKEYKCKVSNKGLPSSIEKTISKAKGQPREPQVYTLPPCRDELTKNQVSLWCLVKGFYPSDIAVEWESNGQPENNYKTTPPVLDSDGSFFLYSKLTVDKSRWQQGNVFSCSVMHEALHNHYTQKSLSLSPGK", "chain 3": "DKTHTCPPCPAPPVAGGPSVFLFPPKPKDTLMISRTPEVTCVVVDVSQEDPEVKFNWYVDGVEVHNAKTKPREEQFNSTYRVVSVLTVLHQDWLNGKEYKCKVSNKGLPSSIEKTISKAKGQPREPQVCTLPPSRDELTKNQVSLSCAVKGFYPSDIAVEWESNGQPENNYKTTPPVLDSDGSFFLVSKLTVDKSRWQQGNVFSCSVMHEALHNRFTQKSLSLSPGK", "notes": "Three-polypeptide bispecific made in CHO3E7 cells; The description speaks of a disulfide bond between CD19 VL and VH, charge substitutions and a knob-in-hole Fc"}, "B2": {"name": "CD3XCD19XCD20 tri-specific antibody (antibody #1) (other)", "chain 1": "EIVLTQSPATLSVTPGERATLSCSASSSVSYMHWYQKKPGQAPRLLIYDTSKLASGIPARFSGSGSGTDFTLTISSLEPEDFAVYYCFQGSVYPFTFGCGTKLEIKRTVAAEVQLVESGGGLVQPGGSLRLSCAASGFTFSTYAMNWVRQAPGKGLEWVGRIRSKYNNYATYYADSVKGRFTISRDDSKNSLYLQMNSLRAEDTAVYYCVRHGNFGNSYVSWFAYWGQGTLVTVSS", "chain 2": "QAVVTQEPSLTVSPGGTVTLTCRSSTGAVTTSNYANWVQQKPGQAPRGLIGGTNKRAPWTPARFSGSLLGGKAALTLSGAQAEDEADYYCALWYSNLWVFGGGTKLTVLRTVAAQVQLQESGPGLVKPSQTLSLTCTVSGGSISTSGMGVGWIRDHPGKCLEWIGHIWWDDDKRYNPALKSRVTISVDTSKNQFSLKLSSVTAADTAVYYCARMELWSYYFDYWGQGTTLTVSSASEPKSSDKTHTCPPCPAPPVAGPSVFLFPPKPKDTLMISRTPEVTCVVVDVSQEDPEVKFNWYVDGVEVHNAKTKPREEQFNSTYRVVSVLTVLHQDWLNGKEYKCKVSNKGLPSSIEKTISKAKGQPREPQVYTLPPSRDELTKNQVSLWCLVKGFYPSDIAVEWESNGQPENNYKTTPPVLDSDGSFFLYSKLTVDKSRWQQGNVFSCSVMHEALHNHYTQKSLSLSP", "heavy": "QVQLVQSGAEVKKPGSSVKVSCKASGYAFSYSWINWVRQAPGQGLEWMGRIFPGDGDTDYNGKFKGRVTITADKSTSTAYMELSSLRSEDTAVYYCARNVFDGYWLVYWGQGTLVTVSSASTKGPSVFPLAPSSKSTSGGTAALGCLVKDYFPEPVTVSWNSGALTSGVHTFPAVLQSSGLYSLSSVVTVPSSSLGTQTYICNVNHKPSNTKVDKKVEPKSCDKTHTCPPCPAPPVAGPSVFLFPPKPKDTLMISRTPEVTCVVVDVSQEDPEVKFNWYVDGVEVHNAKTKPREEQFNSTYRVVSVLTVLHQDWLNGKEYKCKVSNKGLPSSIEKTISKAKGQPREPQVYTLPPSRDELTKNQVSLSCAVKGFYPSDIAVEWESNGQPENNYKTTPPVLDSDGSFFLVSKLTVDKSRWQQGNVFSCSVMHEALHNRFTQKSLSLSP", "light": "DIVMTQTPLSLPVTPGEPASISCRSSKSLLHSNGITYLYWYLQKPGQSPQLLIYQMSNLVSGVPDRFSGSGSGTDFTLKISRVEAEDVGVYYCAQNLELPYTFGGGTKVEIKRTVAAPSVFIFPPSDEQLKSGTASVVCLLNNFYPREAKVQWKVDNALQSGNSQESVTEQDSKDSTYSLSSTLTLSKADYEKHKVYACEVTHQGLSSPVTKSFNRGEC", "notes": "Tri-specific antibody of four polypeptide chains"}}, "key": {"[1]": {"molecular_target": "T1, human CD3ε antigen (human, UniProt P07766 23-126)", "T1 construct": "Immobilized on the BIAcore chip; The construct (tag, limits) is not described", "T1 sequence (P07766 23-126)": "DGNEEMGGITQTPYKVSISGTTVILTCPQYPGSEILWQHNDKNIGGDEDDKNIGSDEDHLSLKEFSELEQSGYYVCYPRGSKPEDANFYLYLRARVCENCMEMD", "test": "BIAcore (SPR), antigen immobilized on chip, antibody injected at 5 concentrations"}, "[2]": {"molecular_target": "T2, human CD19 antigen (human, UniProt P15391 20-291)", "T2 sequence (looked up)": "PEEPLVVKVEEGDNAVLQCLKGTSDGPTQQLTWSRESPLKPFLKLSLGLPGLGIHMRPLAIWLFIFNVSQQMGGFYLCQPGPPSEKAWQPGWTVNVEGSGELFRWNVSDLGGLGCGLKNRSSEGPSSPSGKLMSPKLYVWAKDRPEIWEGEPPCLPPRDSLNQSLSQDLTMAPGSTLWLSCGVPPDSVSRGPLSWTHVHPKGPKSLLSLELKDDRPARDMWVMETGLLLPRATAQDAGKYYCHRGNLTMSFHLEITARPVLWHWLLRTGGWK", "test": "BIAcore (SPR), CD19 captured on anti-His chip, antibody injected at 5 concentrations"}, "[3]": {"molecular_target": "T2, human CD19 antigen", "test": "BIAcore (SPR), CD19 captured on anti-His chip, antibody injected at 5 concentrations", "remark": "listed apart in the source"}, "[4]": {"molecular_target": "T1, human CD3ε antigen", "test": "BIAcore (SPR), antigen immobilized on chip, antibody injected at 5 concentrations", "remark": "listed apart in the source"}, "[5]": {"molecular_target": "T3, CD20 (stably transfected into K562 cells) (UniProt P11836 1-297, limits assumed)", "T3 sequence (looked up)": "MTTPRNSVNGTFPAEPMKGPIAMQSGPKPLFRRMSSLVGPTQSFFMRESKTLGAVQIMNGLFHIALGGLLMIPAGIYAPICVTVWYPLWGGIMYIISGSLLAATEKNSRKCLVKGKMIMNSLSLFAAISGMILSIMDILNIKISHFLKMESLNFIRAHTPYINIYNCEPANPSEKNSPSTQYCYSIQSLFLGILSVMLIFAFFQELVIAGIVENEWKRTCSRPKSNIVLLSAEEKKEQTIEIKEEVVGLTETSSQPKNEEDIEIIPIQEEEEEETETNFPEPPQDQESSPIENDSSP", "test": "cell-based or functional assay"}}, "note": "Read-outs that look alike come from different tables or passages of the source.", "data": [{"binder": "B1", "values": [{"measurement": "Kd", "setting": "[1]", "result": 31.4, "unit": "nM"}, {"measurement": "koff", "setting": "[1]", "result": 0.0153, "unit": "s⁻¹"}, {"measurement": "kon", "setting": "[1]", "result": 488000, "unit": "M⁻¹ s⁻¹"}, {"measurement": "Kd", "setting": "[2]", "result": 1.83, "unit": "nM"}, {"measurement": "koff", "setting": "[2]", "result": 0.000669, "unit": "s⁻¹"}, {"measurement": "kon", "setting": "[2]", "result": 365000, "unit": "M⁻¹ s⁻¹"}]}, {"binder": "B2", "values": [{"measurement": "Kd", "setting": "[3]", "result": 1.32, "unit": "nM"}, {"measurement": "koff", "setting": "[3]", "result": 0.000273, "unit": "s⁻¹"}, {"measurement": "kon", "setting": "[3]", "result": 207000, "unit": "M⁻¹ s⁻¹"}, {"measurement": "Kd", "setting": "[4]", "result": 25, "unit": "nM"}, {"measurement": "koff", "setting": "[4]", "result": 0.00835, "unit": "s⁻¹"}, {"measurement": "kon", "setting": "[4]", "result": 334000, "unit": "M⁻¹ s⁻¹"}, {"measurement": "EC50 of killing of K562-CD20 target cells by PBMC effector cells (absorbance at OD490)", "setting": "[5]", "result": 0.00122, "unit": "nM"}]}]}
